Consider 41 sequences from the nanobody polyreactivity screen of Harvey et al. (2022).

The data set is described as follows: yeast display, Sf9 membrane polyspecificity reagent, FACS + sequencing; frameworks hold sequencing errors. Summed up: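 Using colony PCR, genes from sorted yeast display clones were amplified, then sequenced on MiSeq at 2 × 250 and filtered by CDR length. The clones had been stained with 10% biotinylated, detergent-solubilized Sf9 membrane reagent for 1 hour at 4 °C and sorted by FACS into low and high (top ~1%) gates on anti-HA and streptavidin fluorescence. Polyreactivity labels come from the gate of origin.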
Consider “QVQLVESGGGLVQAGGSLRLSCAASGSNFTPNTMGWYRQAPAKERELVAGISSGDSTDYADSVKVRFTISRDNAKNTVYLQLNSLNPEDPAVYYCAAPWYGYYSRYDFYYWGQGTQVTVSS”, for which the “polyreactivity (PSR sort gate)” value is listed as “low polyreactivity”.
Under “QVQLVESGGGLVQAGGSLRLSSAASGRIFYGYTMGWYRQAPGKERELVAAITQSSGSTYYADSVKGRFTISRDNAKNTVYLQMNSLKPEDTAVYYCARDPGRRYSYTYDYWGQGTQVTVSS” stands “low polyreactivity”; under “QVQLVESGGGLVQAGGSLRLSCAASGLTFAFYAMGWYRQAPGKERELVAAISGSGGSTNYADSVKGRFTISRDNAKNTVYLQMNSLKPEDTAVYYCAATYTYSWAYGYWGQGTQVTVSS”, “high polyreactivity”; under “QVQLEESGGGLVQAGGSLRLSCAASGRSFWPNAMGWYRQAPGKERELVAAISSGGSTNYADSVKVRFTISRDNAKNTVYLQMNSLKPEDTAVYYCASDGQGDKYDYYGHNFWGQGTQVTVSS”, “low polyreactivity”.
As to “QVQLGESGGGLVQAGGSLRLSCAASGIIFRRYAMGWYRQAPGKERELVAVISSGGSTNYADSVKGRFTISRDNAKNTVYLQMNSLKPEDTAVYYCAAPSQSRGYYYWGQGTQVTVSS”, the “polyreactivity (PSR sort gate)” value is listed as “high polyreactivity”.
The same measure for “QVQLVESGGGLVQAGGSLRLSCAASGSTFAEYAMGWYRQAPGKERELVATITSSGGGTYYADSVKGRFTISRDNAKNTVYLQMNSLKPEDTAVYYCGQGTQVTVSS”: “low polyreactivity”; for “QVQLVESGGGLVQAGGSLRLSCAASGFTFGPNTMGWYRQAPGKERELVAAISARGGRTYYADSVKGRFTISRDTAKNTVYLQMNSLKPEDTAVYYCAAPGYVRTGVTYGGYYWGQGTQVTVSS”: “high polyreactivity”; for “QVQLVESGGGLVQAGGSLRLSCAASGRTIPIYAMGWYRQEPGKERYLVAAITYSGGSTYYADSVKGRFTISRDNAKNSVYLQMNSLKPEDTAVYYCAVDGTKPYWHQRYVYWGQGTQVTVSS”: “low polyreactivity”.
Under “QVQLVESGGGLVQAGGSLRLSCAASGRTFSRNAMGWYRQAPGKERELVAGISWRGTSTYYADSVKGRFTISRDNAKNTVYLQMNSLKPEYTAVYYCNRVYEYWSEYDYWGQGTQVTVSS” stands “high polyreactivity”; under “QVQLVESGGGLVQAGGSLRLSCAASGFTFSYYAMGWYRQAPGKERELVAAITSGGSTYYADSVKGRFTISRDNAKNTVYLQMNSLKPEDTAVYYCNARGYGTLNVRRERMDYWGQGTQVTVSS”, “high polyreactivity”; under “QVQLVESGGGLVQAGVSLRLSCAASGFIIYGNAMGWYRQAPGKERELVAAINQTGSSTYADSVKGRFTISRDNAKNTVYLQMNSLKPEATAVYYCNKGSWYFFLYDYWGQGTQVTVSS”, “low polyreactivity”.
For “QVQLVESGGGLVQAGGSLRLSCAASGSIFGDYDMGWYRQAPGKERELVAAINRGGSTYYADSVKGRFTMSRDNAKNTVYLQMISLKPEDTAVYYCAAGYPSWYYGYAYDSWGQGTQVTVSS”, the “polyreactivity (PSR sort gate)” value was “low polyreactivity”.
The same measure for “QVQLVESGGGLVQAGGSLRLSCAASGSIIRQNAMGWYRQAPGKERELVAAISFSGTSTYYADSVKGRFTISRDNAKNTVYLQMNSLKPEDTAVYYCAVDNISYWAVENDYWGQGTQVTVSS”: “low polyreactivity”; for “QVQLVESGGGLDQAGGSLRLSCAASGRTFSWYAMGWYRQAPGKERELVAAITYSGGNTYYAHSVKGRFTISRDNAKITVYLLRNSLKPDDNAVYYCAAPSLIAKYEYWGQGTQVTVSS”: “high polyreactivity”.
Under “QVQLVESGGGLVQAGGSLRLSCAASGFTFWAYTMGWYRQAPGKERELVAAITRSGGRTYYADSVKGRFTISRDNAKNTVYLQLNSLKPEDTAVYYCAAKIWSKDEKHDYWGQGTQVTGSS” stands “high polyreactivity”; under “QVQLVESGGGFVQAGGSLRLSCASSGRIFYRNAMVWYRQAPGKESELVAAILGSGGRTYYADSVKGSFTISRDTAKNNVYLQMNSMKPEVTAVYYCAAYGYYVEHPRGLSGPYDDDYWGQGTQVTVSS”, “low polyreactivity”; under “QVQLVESGGGLVQAGGSLRLSCAASGRIFDSNAMGWYRQAPGTEREFVAAITYSSGSTYYRNSVKGRFTISRDNAKNTVYLQMNSLKPEDTAVYYCAAVLYWRTLSSRYDYWGQGTQVTVSS”, “high polyreactivity”.
As for “QVQLVESGGGLVQAGGSLRLSCAASGYIFERTAMGWYRQAHGKERELVAAITDDGDDTYYADSVKGRFTISRDNAKNTVYLQMNSLKPEDTAVFYCAKDLYYGDYYYWGQGTQVTVSS”, the “polyreactivity (PSR sort gate)” value is recorded as “low polyreactivity”.
Under “QVQLVESGGGLVQAGGSLRLSCAASGRTFARYAMGWYRQAPGKERELVAAISRGGTTNYADSVKGRFTISRDNAKNTVYLQMNSLKPEDTAVYYCNRDFHLIHLSSARLDYWGQGTQVTVSS” stands “low polyreactivity”; under “QVQLVESGGGLVQAGGSLRLRCAASGRIFVENAMGWYRQAPGKERELVATISSGDSTNYADSVKGRFTISRDNAKNTVYLQMNSLKPEDTAVYYCDAADGIIESDYWGQGTQVTVSS”, “low polyreactivity”.
Under “QVQLVESGGGLVQAGGSLRLSCAASGYNFRQYAMGWYRQATGKEREFVAAISQTGGSTYYADSVKGRFTISRDNANNTVYLQMNSLKPEDTAVYYCAARYRGQRYRKLDYWGQGTQVTVSS” stands “high polyreactivity”; under “QVQLVESGGGLVQAGGSLRLSCAASGSTFWINTMGWYRQAPGKERELVAAITRSGGNTYYADSVKGRFTISRDNAKNTVYLQMNSLKPEDTAVYYCAAAYTRKYVTHGYWGQGTQVTVSS”, “high polyreactivity”.
For the sequence “QVQLVESVGGLVQAGGSLRLSCAASGRTFAPNFMGWYRQAPGKERELVAAITYSSASTYYADSVKGRFTISRDNAKNTVYLQMNSLKPEDTAVYYCAARDRYYFGGMYYWGQGTQVTVSS”, the “polyreactivity (PSR sort gate)” value is “low polyreactivity”.
Under “QVQLVESGGGLFKAGGSLRLSCAASGSIFRYYTMGWYRQAPGKERELVAAINGSGGSTYYADSVKGRFTISRDNAKNTVYLQMNSLKPEDTAVYYCNRVTKEYGLRQYYYWGQGTQVTVSS” stands “low polyreactivity”; under “QVQLVESGGGLVQAGGSLRLICAASGSIFGDTAMAWYSQAPGKERELVATISSSDASTYYADSVKGRFTSSRDNAKNTVYLQMNSVKREDSAVYYCAKEVNAGYHVWYDYWGEGTQVTVSS”, “low polyreactivity”.
Under “QVQLVESGGGLVQAGGSLRLSCAASGSTLRRYAMGWDRQAPGKERELVAAISGSGDSTYYADSVKGRFTISRDNAKNTVYLQMNSLKPEDTAVYYCNAVYAFNGYDYWGQGTQVTVSS” stands “low polyreactivity”; under “QVQLVESGGGLVQAGGSLRLICAASGSIFVYNAMGWYRQAPGKERELVAAISYSGGRTYYADSVKGRFTISRDNAKNTVYLQMNSLKPEDTAVYYCAARSQRHKLSREYNYWGQGTQVTVSS”, “high polyreactivity”; under “QVQLVESGGGLVQAGGSLRLSCAASGSTFVYYAMGWYRQAPGKEREFVAAISTNGGSTYYADSVKGRFTISRDNAKNTVYLQMNSLKPEDTAVYYCAARWYWGQGTQVTVSS”, “high polyreactivity”.
The same measure for “QVQLVESGGGLVQAGGSLRLSCAASGSTFGLYAMGWYRQEPGKERELVAAITWRASSTYYADSVKGRFTISRDNAKNTVYLQMNSLKPEDTAVYYCAATWYSRFSRGDYDYWGQGTLVTVSS”: “high polyreactivity”; for “QVQLVESGGGLVQAGGSLRLSSAASGRTFWVYAMGCYRQAPGKESELVAAISRSGVSTYYADSVMGRFTISRDNAKNTVYLQMNSLKPEDTAVYYCAAPLIYTPLKYHYWGQGTQVTVSS”: “low polyreactivity”; for “QVQLVESGGGLVQAGGSLRLSCAASGRTFFMYAMGRYRQAPGKERELVAAISWGGVSTYYADSVKGRFTISRDNAKNTVYLQMNSLKPEDTAVYYCNAEYYYPRGRYWYDYWGQGTQVTVSS”: “high polyreactivity”.
On to “QVQLVESGGGLVQAGGSHRLSCAASGRIFFPYDMGWYRQAPGKDRELVAAITNSGGRTYYADSVKGRFTISRDNAKNTVYLQMNSLKPEDSAVYYCAAEYVSAKWEYGYWGQGTQVTVSS”, for which the “polyreactivity (PSR sort gate)” value is listed as “low polyreactivity”.
The same measure for “QVQLVESGGGLVQAGGSLRLSCAASGRIFGKYAMGWYRPAPGKERELVAAIDGSGSTNYADSVKGRFTISRDNAKNTVYLQMNSLKPEDTAVYYCATDHAQKFRYRSPREYWGEGTQVTVSS”: “low polyreactivity”.
Under “QVQLVESGGGLVQAGGSLRLSCAASGRTFTPYAMGWYRPAPGKERELVATISSGTSTNYADSVKGRVTISRDNAKNTVYLQMNSLKPEDTAVYYCSPSRDTVGRGPIQRDYWGQGTQVTVSS” stands “low polyreactivity”; under “QVQLVESGGGLVQAGGSLRLSCAASGRTFPRYAMGWYRQAPGKERELVAAISVRAGITYYADSVKGRFTISRDNAKNTVYLQMNSLKPEDTAVYYCAKSVRYPASDYWGQGTQVTVSS”, “low polyreactivity”.
The same measure for “QVQLVESGGGLLQAGGSLRLSCAASGRIFGQYAMGWYRQAPGKEREFVAGISTTGGSTYYADSVKGRFTISRDNAKNTVYLQMNSLKPEDTAVYYCAVRINWSRWYHYYTYNYWGQGTQVTGSS”: “high polyreactivity”; for “QDQLVEAGGGLVQAGGSLRLSCAASGRIFYPDAMVWYRQAPGKERELVAAIRRSGVDTYYADSVKVRFTISRDNAKNTVSLQRNSLKPEDTAVYYCAADPYWFFPHYDSWGQGTQVTVSS”: “low polyreactivity”; for “QVQLVESGGGLVQAGGSLRLSCAASGRTFGGNGMGWYRQAPGKERELVASISFSGGAGTYYADSVKGRFTISRDIAKNTVYLQMNSLKPEDTAVYYCAKRYVTPTYRRYYWGQGTQVTVSS”: “high polyreactivity”.
As to “QVQLVESGGGLVQAGGSLRLSCAASGSIFRSYTMGWYRQAPGKEREFVAAITKRGGSTYYADSVKGRFTISRDNAKNTVYLQMNSLKPEDTAVYYCAAVAGHYYYFRELGYWGQGTQVTVSS”, the “polyreactivity (PSR sort gate)” value is reported as “high polyreactivity”.
“QVQLVESGGGLVQAGGSLRLSCAASGSTFARNAMGWYRQAPGKERELVAAITTRGSSTYYADSVKGRFTISRDNAKNTVYLQMNSLKPEDTAVYYCAARTQAPLGKYGYWGQGTQVTVSS”: the “polyreactivity (PSR sort gate)” value is on record as “high polyreactivity”.
The same measure for “QVQLVESGGGLVQAGGSLRLSCAASGIIFLYYAMGWYRQAPGKERELVAAISSGGSTYYADSVKGRFTISRDNAKNTFYLQLNSLKPEDTAVYYCAVGRVGRFYYWGQGTQVSVSS”: “high polyreactivity”.
